T1: mouse EpoR-Fc protein (muEpoR-Fc) (mouse, UniProt P14753 25-249)
T1 construct: Biotinylated in the assay; also called biotinylated muEpoR-Fc; not shown: Fc part not described
T1 sequence (looked up): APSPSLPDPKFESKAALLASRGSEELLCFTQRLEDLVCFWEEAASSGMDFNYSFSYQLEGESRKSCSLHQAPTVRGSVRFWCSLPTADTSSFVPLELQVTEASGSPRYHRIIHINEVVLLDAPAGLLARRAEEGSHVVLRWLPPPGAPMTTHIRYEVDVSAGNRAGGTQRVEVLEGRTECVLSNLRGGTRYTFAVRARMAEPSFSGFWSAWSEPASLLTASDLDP


Target: T1, mouse EpoR-Fc protein (muEpoR-Fc)
Experiment: ELISA: antibody coated at 1 µg/ml, biotinylated muEpoR-Fc at 5 µg/ml, streptavidin-HRP, ABTS

binding result | Binder
binds | clone 2 IgG2 protein (antibody, V domains shown, Human IgG2 (vector pVE414NhuIgG2); light chain constant type matches the variable light chain isotype; also called IgG2 2; IgG22) VH: EVQLVQSGGGLVQPGGSLRLSCAASGFTFSSYWMSWVRQAPGKGLEWVANIKPDGSEKYYVDSVKGRFTISRDNAKNSVYLQMNSLRAEDTAVYYCARVSRGGSYSDWGQGTLVTVSS VL: QSVLTQPPSASGSPGQSVTISCTGTSSDVGGYNYVSWYQQHPGKAPKLMIYEVSKRPSGVPDRFSGSKSGNTASLTVSGLQPEDEADYYCSSYAGRNWVFGGGTQLTVL
binds | clone 5 IgG2 protein (antibody, V domains shown, Human IgG2; also called IgG2 5; IgG25) VH: EVQLVESGGGLVQPGGSLRLSCAASGFTFSSYWMSWVRQAPGKGLEWVANIKPDGSEKYYVDSVKGRFTISRDNAKNSVYLQMNSLRAEDTAVYYCARVSRGGSYSDWGQGTLVTVSS VL: QSALTQPASVSGSPGQSITISCTGTSSDVGGYIYVSWYQQHPGKAPKLMIYDVSRRPSGISDRFSGSKSGNTASLTISGLQAEDEADYYCNSYTTLSTWLFGGGTKVTVL
binds | clone 7 IgG2 protein (antibody, V domains shown, Human IgG2; also called IgG2 7) VH: EVQLVQSGGGLVQPGGSLRLSCAASGFTFSSYWMSWVRQAPGKGLEWVANIKPDGSEKYYVDSVKGRFTISRDNAKNSVYLQMNSLRAEDTAVYYCARVSRGGSYSDWGKGTLVTVSS VL: QSALTQPASVSGSPGQSIIISCTGTRSDIGGYNYVSWYQHHPGRAPKLIIFDVNNRPSGVSHRFSGSKSGNTASLTISGLQAEDEADYYCNSFTDSRTWLFGGGTKLTVL
binds | clone 30 IgG2 protein (antibody, V domains shown, Human IgG2; also called IgG2 30) VH: QVQLQESGPGLVKPSQTLSLTCAISGDSVSSNSAAWNWIRQSPSRGLEWLGRTYYRSKWYNDYAVSVKSRMTIKADTSKNQFSLQLNSVTPEDTAVYYCARDEGPLDYWGQGTLVTVSA VL: QAVLTQPSSVSGAPGQRVTISCTGSSSNLGTGYDVHWYQQLPGTAPKLLIYGNSNRPSGVPDRFSGSKSDTSGLLAITGLQAEDEATYYCQSYDFSLSAMVFGGGTKVTVL
binds | clone 10 IgG2 protein (antibody, V domains shown, Human IgG2; also called IgG2 10) VH: not shown VL: QSVLTQPPSVSEAPGQRVTIACSGSSSNIGNNAVSWYQQLPGKAPTLLIYYDNLLPSGVSDRFSGSKSGTSASLAISGLQSEDEADYYCAAWDDSLNDWVFGGGTKVTVL

From patent publication US20080124340A1 (published 2008)
